Changes are numbered by the printed parent chain. Numbers in names are those of the source.
Columns and labels:
SEC = target: the molecule itself; assay: SEC
crystal structure = target: the molecule itself; assay: crystal structure

B1: ArnB (wild type) of Salmonella typhimurium (enzyme, S. typhimurium, UniProt Q8ZNF3 1-385, looked up)
chain: MAEGKMMSDFLPFSRPAMGAEELAAVKTVLDSGWITTGPKNQELEAAFCRLTGNQYAVAVSSATAGMHIALMALGIGEGDEVITPSMTWVSTLNMIVLLGANPVMVDVDRDTLMVTPEHIEAAITPQTKAIIPVHYAGAPADLDAIYALGERYGIPVIEDAAHATGTSYKGRHIGARGTAIFSFHAIKNITCAEGGIVVTDNPQFADKLRSLKFHGLGVDAWDRQSGGRAPQAEVLAPGYKYNLPDLNAAIALAQLQKLDALNARRAAIAAQYHQAMADLPFQPLSLPSWEHIHAWHLFIIRVDEARCGITRDALMASLKTKGIGTGLHFRAAHTQKYYRERFPTLTLPDTEWNSERICSLPLFPDMTESDFDRVITALHQIAGQ
stoichiometry N (SEC): 2

B2: ArnB K188A mutant of Salmonella typhimurium (enzyme, S. typhimurium, UniProt Q8ZNF3 1-385, looked up)
chain: B1 chain with K188A
binding result (crystal structure): binds
